# Reference: patent US7959916B2, “Negative immunomodulation of immune responses by ERp5” (Fred Hutchinson Cancer Research Center, priority 2007, dated 2011)
# Substitutions are numbered along the chain they refer to. Names may count otherwise.
# T1: MICA (Homo sapiens, UniProt Q29983)
# T1 sequence (Q29983 24-203): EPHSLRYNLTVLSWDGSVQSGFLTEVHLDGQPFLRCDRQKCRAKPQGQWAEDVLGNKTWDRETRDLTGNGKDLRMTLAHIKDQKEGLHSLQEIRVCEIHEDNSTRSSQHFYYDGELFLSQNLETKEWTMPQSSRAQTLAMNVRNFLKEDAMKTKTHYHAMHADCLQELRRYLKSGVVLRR
# T2: MICA (Homo sapiens, UniProt Q29983)
# T2 sequence (Q29983 24-299): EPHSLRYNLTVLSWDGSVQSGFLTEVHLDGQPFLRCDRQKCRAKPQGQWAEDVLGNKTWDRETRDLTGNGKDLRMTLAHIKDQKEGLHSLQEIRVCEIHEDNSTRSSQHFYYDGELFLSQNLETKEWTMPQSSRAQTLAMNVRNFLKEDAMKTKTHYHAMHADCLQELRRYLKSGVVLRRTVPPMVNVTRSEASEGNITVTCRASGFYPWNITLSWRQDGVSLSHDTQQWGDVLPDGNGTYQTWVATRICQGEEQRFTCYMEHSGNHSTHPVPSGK
# T3: ERp5 (Homo sapiens, UniProt Q15084)
# T3 sequence (Q15084 20-440): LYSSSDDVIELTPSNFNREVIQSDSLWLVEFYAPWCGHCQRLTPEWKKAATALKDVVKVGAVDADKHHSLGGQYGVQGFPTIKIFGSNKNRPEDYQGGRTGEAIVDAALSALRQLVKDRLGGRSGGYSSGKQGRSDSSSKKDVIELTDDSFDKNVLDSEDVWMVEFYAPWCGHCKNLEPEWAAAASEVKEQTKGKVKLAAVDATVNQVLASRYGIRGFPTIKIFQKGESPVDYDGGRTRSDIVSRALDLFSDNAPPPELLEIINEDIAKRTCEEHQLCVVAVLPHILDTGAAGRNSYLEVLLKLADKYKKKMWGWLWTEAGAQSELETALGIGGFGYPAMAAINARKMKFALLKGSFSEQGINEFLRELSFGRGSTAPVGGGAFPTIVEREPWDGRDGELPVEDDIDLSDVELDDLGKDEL
# T4: MICA (Homo sapiens, UniProt Q29983)
# T4 sequence (Q29983 210-297): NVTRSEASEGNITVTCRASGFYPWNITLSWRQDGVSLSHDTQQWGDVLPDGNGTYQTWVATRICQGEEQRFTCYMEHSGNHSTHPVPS
# B1: dRNase: Denatured and reduced RNase A, excess substrate shifting ERp5 equilibrium towards the reduced state (protein, UniProt P61823 27-150, looked up)
# Ribonuclease pancreatic: KETAAAKFERQHMDSSTSAASSSNYCNQMMKSRNLTKDRCKPVNTFVHESLADVQAVCSQKNVACKNGQTNCYQSYSTMSITDCRETGSSKYPNCAYKTTQANKHIIVACEGNPYVPVHFDASV
# modifications: denatured and reduced
# notes: Denatured and reduced RNase A, excess substrate shifting ERp5 equilibrium towards the reduced state
# B2: native RNase: native RNase A used as control for dRNase (protein, UniProt P61823 27-150, looked up)
# Ribonuclease pancreatic: B1 Ribonuclease pancreatic
# B3: soluble MICA: soluble form of MHC class I-related chain A, NKG2D ligand binding ERp5 (protein)
# chain: T2 sequence (Q29983 24-299)
# B4: rMICA: Non-glycosylated recombinant MICA expressed in bacteria (protein)
# chain: T2 sequence (Q29983 24-299)
# B5: C36S: C36S mutant of ERp5 fragment 1-118 (protein)
# chain: LYSSSDDVIELTPSNFNREVIQSDSLWLVEFYAPWSGHCQRLTPEWKKAATALKDVVKVGAVDADKHHSLGGQYGVQGFPTIKIFGSNKNRPEDYQGGRTGEAIVDAALSALRQLVKD
# modifications: left off: small tags and cut ends
# B6: ERp51-118: recombinant N-terminal thioredoxin-like domain fragment of ERp5, residues 1-118 (protein)
# chain: B5 chain with S36C
# modifications: left off: small tags and cut ends
# B7: C39S: C39S mutant of ERp5 fragment 1-118 (protein)
# chain: B5 chain with S36C, C39S
# modifications: left off: small tags and cut ends
# How the values were obtained:
# [1] = biological target: T1, MICA; assay: ERp5 activity assay on MICA substrates (non-reducing SDS-PAGE); type: biochemical; settings: isolated α1α2 platform (residues 1-180)
# [2] = biological target: T2, MICA; assay: as above; type: biochemical; settings: ectodomain MICA, RT, no reducing agents
# [3] = test system: Siderocalin and CD94-NKG2A; assay: ERp5 activity assay on control proteins; type: biochemical; settings: Siderocalin (intrachain) and CD94-NKG2A (intrachain and interchain) disulfide bonds
# [4] = test system: sMICA shedding by Hela and A375 cells; assay: sMICA shedding by tumor cell lines (ELISA for sMICA)
# [5] = test system: surface expression of MICA; assay: MICA surface expression on tumor cell lines (flow cytometry); settings: tumor lines exposed to DTNB or PAO at titered non-toxic concentrations
# [6] = test system: ERp5-MICA complexes; assay: Capturing of ERp5-MICA complexes by co-immunoprecipitation from TCA-treated Hela cells; type: cell-based; settings: Hela cells grown 16 h with increasing concentrations
# Description: Immunoprecipitations and sMICA cleavage.
# [7] = test system: monocyte derived dendritic cells (mDC); assay: Maturation marker expression on monocyte-derived dendritic cells (flow cytometry); type: cell-based; settings: mDC matured with cytokine cocktail, soluble MICA 10 ng/ml
# Experimental: Monocytes were enriched from normal peripheral blood mononuclear cells (PBMC) by plastic adherence and cultured under standard conditions in the presence of IL-4 and GM-CSF. Cells were harvested at 6 hour-intervals and stained with fluorescein isothiocyanate (FITC)-anti-CD83 or FITC-HLA-DR followed by saturating phycoerythrin (PE)-MICA tetramer concentrations or polyclonal rabbit anti-ERp5 and PE-goat anti-rabbit Ig. On day 6 of culture with IL-4/GM-CSF, mDC were matured (IL-1β, IL-6, TNFα, and PGE2) and MICA tetramer staining and Erp5 expression monitored for an additional 3 days. MICA tetramer was produced by ectodomain MICA protein expression in transfected 293T cells, protein purification from culture supernatant using Invitrogen technology, and BirA enzymatic biotinylation and conjugation with PE-streptavidin.
# mDC were matured using standard cytokine cocktail (Il-1β, IL-6, TNFα, and PGE2) in the additional presence or absence of soluble MICA (10 ng/ml). Mature mDC were harvested after 24 to 48 hours and processed for standard flow cytometry of CD80 and CD83 expression. […] IL-6 contents in culture supernatants were measured by standard ELISA. […] After 72 hours, cells in wells were labeled with [^3H]thymidine for 24 hours and harvested for counting of incorporated radioactivity.
# [8] = test system: mDC and allogeneic T cells; assay: Mixed-lymphocyte reaction, alloantigen presentation by mDC ([3H]thymidine incorporation); type: cell-based; settings: MLR, soluble MICA 10 ng/ml, 72 h
# Experimental: mDC were matured using standard cytokine cocktail (Il-1β, IL-6, TNFα, and PGE2) in the additional presence or absence of soluble MICA (10 ng/ml). Mature mDC were harvested after 24 to 48 hours and processed for standard flow cytometry of CD80 and CD83 expression. For IL-6 secretion assays, 24 hour cytokine-matured mDC were washed, mixed with irradiated C1R-Neo (control), C1R-MICA or C1R-ULBP1 cells at a ratio of 2:1 and plated at 50,000 (experiment 1 and 2) or 200,000 mDC (experiment 3 and 4) per round-bottom 96-well in 200 μl AIM-V media with LPS (10 μg/ml). IL-6 contents in culture supernatants were measured by standard ELISA. The ability of mature mDC to present alloantigen in the presence or absence of soluble MICA was studied using standard mixed-lymphocyte reaction (MLR). Irradiated (3000 Rad) cytokine-matured mDC and allogeneic T cells were plated at various ratios (X-axis of bottom bar graph) with or without soluble MICA (10 ng/ml AIM-V) in round-bottom 96-well plates. After 72 hours, cells in wells were labeled with [^3H]thymidine for 24 hours and harvested for counting of incorporated radioactivity.
# [9] = test system: PHA (or anti-CD3)-activated CD4 T cells; assay: Cytokine production by activated CD4 T cells (17 multiplex cytokine analysis); type: cell-based; settings: soluble MICA 10 ng/ml, 24 hour supernatants
# Experimental: Total PBMC from healthy donors were cultured for 48 hours with PHA (1 μg/ml) or on solid-phase anti-CD3 (25 ng/ml) and stained for standard three-color flow cytometry using combinations of directly conjugated anti-CD3, -CD4 and -CD8 mAbs followed by anti-ERp5 and PE-goat anti-rabbit Ig. For cytokine analyses, bulk NKG2D^+ and NKG2D^− T cell populations purified by magnetic sorting were plated on solid-phase monoclonal antibodies with or without soluble MICA (10 ng/ml). 24 hour culture supernatants were screened by 17 multiplex cytokine analysis.
# [10] = biological target: T3, ERp5; assay: MICA tetramer binding to NKG2D-negative tumor cells (flow cytometry); settings: U266, Hela, HCT116, Lovo and A375 cells, competition with unglycosylated protein
# [11] = biological target: T4, MICA; assay: ERp5 activity assay on MICA substrates (non-reducing SDS-PAGE); type: biochemical; settings: isolated α3 domain (residues 187-274)
molecule,measurement,setting,value
ERp5: recombinant ERp5 (residues 1-421 of the mature protein) produced in bacteria,activity on MICA α1α2 domain,[1],no activity
same,reduction of MICA disulfide bond,[2],gradual reduction of MICA
same,reduction of unrelated proteins,[3],did not affect
"O=C(O)c1cc(SSc2ccc([N+](=O)[O-])c(C(=O)O)c2)ccc1[N+](=O)[O-] [DTNB, 5,5-dithiobis-(2-nitrobenzoic acid), reference compound]",shedding of sMICA,"[4]; Hela and A375 cells, 24 h exposure, ELISA, dose-dependent",reduce shedding of sMICA
same,surface expression of MICA,[5],without affecting surface expression of MICA
B1,"ERp5 co-immunoprecipitating with MICA, emergence of sMICA",[6],larger amounts of ERp5 co-immunoprecipitating with MICA
same,sMICA shedding,"[4]; Hela and A375 cell cultures treated with dRNase, 16 h",promotes sMICA shedding
B2,"ERp5 co-immunoprecipitating with MICA, emergence of sMICA",[6],None of those biochemical changes were observed
B3,expression of DC maturation markers (CD83; CD80),[7],diminished
same,ability of mDC to present alloantigen and stimulate T cells,[8],reduced ability to present alloantigen and stimulate T cells
same,"amounts of IL-1β, IL-17, G-CSF and MCP1",[9]; NKG2D-CD4+ T cells,increased amounts
same,"amounts of IL-1β, IL-17, G-CSF and MCP1",[9]; activated NKG2D+CD4+ T cells,vastly increased
B4,MICA tetramer binding to NKG2D- tumor cells,[10],inhibited
B5,reduction of MICA disulfide bond,[2],no activity
B6,reduction of MICA disulfide bond,[2],partially reduced
B7,reduction of MICA disulfide bond,[2],formed a trapped disulfide-linked intermediate
same,activity on MICA α3 domain,[11],reduces the MICA α3 disulfide bond
